This experiment has as its target SH2D3A peptide on HLA-A*02:01 (human). Description: T2/peptide TDCC potency screen with TCR2-T-IL12 cells, peptide titration; reference: DCAF4L2 target peptide; full-length, on cells. The conditions noted are these: chains Valpha:Vbeta.

B1: TCR2 (protein)
chain 1: EDQVTQSPEALRLQEGESSSLNCSYTVSGLRGLFWYRQDPGKGPEFLFTLYSAGEEKEKERLKATLTKKESFLHITAPKPEDSATYLCAVQAWGGGSQGNLIFGKGTKLSVKP
chain 2: DSGVTQTPKHLITATGQRVTLRCSPRSGDLSVYWYQQSLDQGLQFLIQYYNGEERAKGNILERFSAQQFPDLHSELNLSSLELGDSALYFCASSAGDRGYEQYFGPGTRLTVT
B1 showed an EC50 of peptide relative to the DCAF4L2 target peptide of 87 fold.
